“Also recorded” adds a separate entry of the source.
Columns and labels:
[1] = tested on: cultured monkey corneal endothelial cell; experiment: Detection of proliferating cells with Click-iT EdU Imaging Kit after R-spondin 1 addition; type: cell-based, cynomolgus monkey; details: 10 ng/ml or 50 ng/ml R-spondin 1; almost confluent cells; 48 hours after addition
Protocol: After addition of an R-spondin 1 protein to a cultured monkey corneal endothelial cell and culturing for 48 hours, a cell during proliferation was detected using the Click-iT Edu imaging Kit, and the positivity rates of EdU and the cell densities of a control cell and a cell to which R-spondin 1 was added were compared.
EdU (5-ethynyl-2′-deoxyuridine) is a modified nucleic acid taken into DNA at a DNA synthesis phase by a chemical reaction, and is widely used in place of a conventional BrdU for identifying a DNA synthesis phase cell. By measuring the positivity rate of EdU, the proliferative cell rate in a cultured cell is found.
(§1) A cultured monkey corneal endothelial cell (Lot. 20111222-4 P2) was treated with 0.05% trypsin at 37° C. for 10 minutes, peeled from a T-25 flask, and suspended in a culture medium (10% FBS+bFGF/DMEM). The number of cells was counted, and the suspension was adjusted with a culture medium to 3×10^4 cells/300 μl. Cells were seeded on a Lab-TekII chamber Slide (8 well) coated with FNS, in 300 μl/well.
At 7 days after cell seeding, a medium was exchanged with a medium containing R-spondin 1 (0, 10, 50 ng/ml) in the state where cells were almost confluent, and at 24 hours after addition of R-spondin 1, Click-iT EdU was added so that the final concentration was 10 μM. […]

[2] = tested on: cultured monkey corneal endothelial cell; experiment: Cell density measurement (Konan KSS-400EB) after R-spondin 1 addition; type: cell-based, cynomolgus monkey; details: 10 ng/ml or 50 ng/ml R-spondin 1; 48 hours after addition
Protocol: as §1
At 7 days after cell seeding, a medium was exchanged with a medium containing R-spondin 1 (0, 10, 50 ng/ml) in the state where cells were almost confluent, and at 24 hours after addition of R-spondin 1, Click-iT EdU was added so that the final concentration was 10 μM. (Although a manual of Kit recommended that a half of a medium was exchanged, a medium was not exchanged) After additional 24 hours (48 hours after addition of R-spondin 1), cells were fixed with 4% PFA/PBS, EdU was detected according to a manual of Kit, and the EdU-positive cell rate was counted (FIGS. 8 and 9).
A chamber slide after staining was photographed with a phase contrast microscope, and the cell density was measured using the corneal endothelial cell density calculating software, Konan Storage System KSS-400EB (FIG. 10).

[3] = tested on: cultured human corneal endothelial cell; experiment: Culture of human corneal endothelial cells with or without RSPO: cell morphology and cell density; type: cell-based
From the text: GPR49/LGR5 was an orphan receptor of a G protein-coupled receptor superfamily, and a ligand thereof was not known previously. […] In order to determine the function of RSPO on CEC differentiation, the present inventors cultured primate CEC with human recombinant RSPO, or without human recombinant RSPO. […] In order to determine the function of RSPO on CEC proliferation, the present inventors performed immunohistochemical research on Ki67. […] In view of these findings, the present inventors considered that among a RSPO family, particularly, RSPO1 can play an important role in maintenance of CEC.
Finally, in order to further determine influence of RSPO1 on CEC, the present inventors maintained a secondary culture of human CEC in the presence or absence of RSPO1. […] The cell density of a RSPO1-treated cell increased as compared with that of a non-treated cell (FIG. 6B-E). In order to verify which pathway regulated this type of corneal endothelial MT, the present inventors investigated the expression level of a Wnt/β-catenin-associated molecule using Western blotting analysis. […] Further, the protein level of a cell transfected with NT and GPR49/LGR5 and treated with RSPO1 decreased as compared with that of a cell group not treated with RSPO1 (FIG. 6B-F).
A cultured human corneal endothelial cell was cultured for 7 days under conditions of 37° C. and 5% CO2, with being divided into a group of addition of RSPO1 (50 ng/ml) and a group of addition of no RSPO1. […] From the above result, the effect of suppressing differentiation of a corneal endothelial cell was recognized in RSPO1.

[4] = tested on: cytosol β-catenin and p-LRP6; experiment: Western blotting of Wnt/β-catenin-associated molecules in human CEC with or without RSPO1; type: cell-based
From the text: For Western blotting, the following rabbit polyclonal antibodies: anti-LRP6, p-LRP6 (Cell Signaling Technology, Inc., Beverly, Mass.), as well as the following mouse monoclonal antibodies: β-catenin (BD Biosciences) and β-actin (Sigma-Aldrich, St. Louis, Mo.); were used. As a secondary antibody, HRP-labeled anti-rabbit or mouse IgG (GE Healthcare, Piscataway, N.J.) was used. Recombinant human SHH, purmorphamine, cyclopamine and RSpos were purchased from R&D Systems Inc. (Minneapolis, Minn.).
Cultured human CEC was washed with PBS, and then, rinsed with a lysis buffer containing PBS, 1% TRITON™ X-100, 0.5 M EDTA, phosphatase inhibitor cocktail 2 (Sigma-Aldrich) and […] (Roche). Detection of activated β-catenin (non-membrane-bound type) was implemented according to the protocol previously reported [Aghib D F et al., Exp Cell Res., 1995; 218: 359-369]. In brief, a cell lysate treated with Con A Sepharose™ 4B (GE Healthcare) was incubated at 4° C. for 1 hour. After centrifugation at 4° C. for 10 minutes, the supernatant was transferred into a new tube, Con A Sepharose™ was added to each tube, and the resultant was incubated at 4° C. for 1 hour. Finally, after simple centrifugation, the supernatant was transferred into a new tube, and the protein concentration was determined.
Then, the protein was separated by SDS-PAGE, and transferred to a PVDF membrane. […]

B1: R-spondin 1: Recombinant Human R-spondin 1 (R&D Cat. 4645-RS); ligand of GPR49/LGR5 (protein, listed as Homo sapiens)
chain: MRLGLCVVALVLSWTHLTISSRGIKGKRQRRISAEGSQACAKGCELCSEVNGCLKCSPKLFILLERNDIRQVGVCLPSCPPGYFDARNPDMNKCIKCKIEHCEACFSHNFCTKCKEGLYLHKGRCYPACPEGSSAANGTMECSSPAQCEMSEWSPWGPCSKKQQLCGFRRGSEERTRRVLHAPVGDHAACSDTKETRRCTVRRVPCPEGQKRRKGGQGRRENANRNLARKESKEAGAGSRRRKGQQQQQQQGTVGPLTSAGPA
EdU-positive cell/DAPI as compared with a control [1]: increased two times; also recorded: increased twice | cell density as compared with a control [2]: 1.3 times | cell morphology / in vitro CEC differentiation (phase contrast) ([3]; 50 ng/ml (FIG. 6C-B)): compact and uniform hexagonal cell having a smaller size | cell form in secondary culture of human CEC ([3]; RSPO1 50 ng/ml (FIG. 6B-E), without RSPO1 fibroblast-like phenotype): maintained its hexagonal form | morphology of a cell ([3]; RSPO1 50 ng/ml, 7 days, non-addition group differentiated into fibroblast-like cells): maintained in a cobblestone manner | cell density as compared with a non-treated cell ([3]; secondary culture of human CEC, RSPO1 50 ng/ml): increased | protein level of cytosol β-catenin and p-LRP6 ([4]; cell transfected with GPR49/LGR5 and treated with RSPO1 (50 ng/ml), as compared with NT cell): clearly decreased | protein level of cytosol β-catenin and p-LRP6 ([4]; cells transfected with NT and GPR49/LGR5, treated with RSPO1 (50 ng/ml), as compared with cell group not treated with RSPO1): decreased

Reference: patent US9616101B2, “Differentiation marker and differentiation control of eye cell” (Kyoto Prefectural Public University Corporation, priority 2012, dated 2017)
